Experimental data from US20140154252A1 (EMERGENT PRODUCT DEVELOPMENT SEATTLE, published 2014).
One block for each binder: values may come before it.

Columns and labels:
CD20 [1] = biological target: T1, CD20 (human, UniProt P11836 1-297); assay: flow cytometry on WIL2-S cells (CD20), purified protein at 5 ug/mL, FITC goat anti-human IgG 1:100
T1 construct: whole, on cells; 2H7 is called murine anti-human CD20; also called CD20 presented on WIL-2S cells; CD20 on Ramos, BJAB, SU-DHL-6 and DoHH2 B cells
T1 sequence (looked up): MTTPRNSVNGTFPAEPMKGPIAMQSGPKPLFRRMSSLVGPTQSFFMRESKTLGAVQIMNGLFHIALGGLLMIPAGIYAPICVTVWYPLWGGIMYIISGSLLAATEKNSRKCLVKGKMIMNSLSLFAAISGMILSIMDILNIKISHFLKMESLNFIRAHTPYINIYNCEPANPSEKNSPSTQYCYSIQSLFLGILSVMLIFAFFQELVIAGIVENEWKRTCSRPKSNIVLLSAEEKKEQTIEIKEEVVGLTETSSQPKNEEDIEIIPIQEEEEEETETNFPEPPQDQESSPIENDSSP
Experimental: Each of the proteins was tested for binding at 5 μg/ml, and binding detected with FITC goat anti-human IgG at 1:100. Control is FITC goat anti-human IgG alone. See the description for FIG. 2 above for more complete descriptions of the modules of the molecules tested.

CD28mIgG [2] = biological target: T2, CD28mIgG (UniProt P10747 19-152); assay: Western blot, non-reducing, probed with CD28Ig and goat anti-mouse HRP conjugate
T2 construct: Bought reagent; the construct is not described; also called CD28Ig (Ancell); CD28 fused to mouse antibody; not shown: mouse Ig part of the bought fusion; not described
Experimental: (§1) Electrophoresis was performed under non-reducing conditions, and without boiling samples prior to loading. After electrophoresis, proteins were transferred to PVDF membranes using a semi-dry electroblotter apparatus (Ellard, Seattle, Wash.) for 1 hour at 100 mAmp. Membranes were blocked in BLOTTO (5% nonfat milk in PBS) overnight with agitation. FIG. 9A: Membranes were incubated with the AbyD02429.2, a Fab directed to the 2H7 antibody, at 5 μg/ml in BLOTTO for one hour, then washed 3 times for 5 minutes each in PBS-0.5% Tween 20. Membranes were then incubated in 6×His-HRP for one hour at a concentration of 0.5 μg/ml. Blots were washed three times for 15 minutes each in PBST. Wet membranes were incubated with ECL solution for 1 minute, followed by exposure to X-omat film for 20 seconds.
(§2) FIG. 9B: Membranes were incubated with CD28Ig (Ancell, Bayport, Minn.) at 10 μg/ml in BLOTTO, then washed three times for 15 minutes each in PBS-0.5% Tween 20. Membranes were then incubated in goat anti-mouse HRP conjugate (CalTag, Burlingame, Calif.) at 1:3000 in BLOTTO. Membranes were washed three times, for 15 minutes each, then incubated in ECL solution for 1 minute, followed by exposure to X-omat film for 20 seconds.

CD20 [3] = biological target: T1, CD20; assay: sandwich flow cytometry: 2e12HL on WIL-2S cells (CD20), then CD28mIgG, then FITC anti-mouse
CD28mIgG [4] = biological target: T2, CD28mIgG; assay: Western blot of non-reduced protein probed with CD28 murine IgG, then goat anti-mouse HRP
Experimental: as §1, §2

B1: 2H7-sssIgG P238S/P331S-STD1-2e12 VHVL (bispecific antibody)
chain: QIVLSQSPAILSASPGEKVTMTCRASSSVSYMHWYQQKPGSSPKPWIYAPSNLASGVPARFSGSGSGTSYSLTISRVEAEDAATYYCQQWSFNPPTFGAGTKLELKDGGGSGGGGSGGGGSSQAYLQQSGAESVRPGASVKMSCKASGYTFTSYNMHWVKQTPRQGLEWIGAIYPGNGDTSYNQKFKGKATLTVDKSSSTAYMQLSSLTSEDSAVYFCARVVYYSNSYWYFDVWGTGTTVTVSEPKSSDKTHTSPPSPAPELLGGSSVFLFPPKPKDTLMISRTPEVTCVVVDVSHEDPEVKFNWYVDGVEVHNAKTKPREEQYNSTYRVVSVLTVLHQDWLNGKEYKCKVSNKALPASIEKTISKAKGQPREPQVYTLPPSRDELTKNQVSLTCLVKGFYPSDIAVEWESNGQPENNYKTTPPVLDSDGSFFLYSKLTVDKSRWQQGNVFSCSVMHEALHNHYTQKSLSLSPGKNYGGGGSGGGGSGGGGSGNSQVQLKESGPGLVAPSQSLSITCTVSGFSLTGYGVNWVRQPPGKGLEWLGMIWGDGSTDYNSALKSRLSITKDNSKSQVFLKMNSLQTDDTARYYCARDGYSNFHYYVMDYWGQGTSVTVSSGGGGSGGGGSGGGGSGGGGSDIVLTQSPASLAVSLGQRATISCRASESVEYYVTSLMQWYQQKPGQPPKLLISAASNVESGVPARFSGSGSGTDFSLNIHPVEEDDIAMYFCQQSRKVPWTFGGGTKLEIKR
notes: Assembled from modules as m10; also called 2H7-IgG-STD1-2E12 HL; 2H7-2E12 HL
binding result (CD20 [1]): binds

B4: TRU-015 (Fc fusion, not shown: a dimerising Fc or GST)
chain: QIVLSQSPAILSASPGEKVTMTCRASSSVSYMHWYQQKPGSSPKPWIYAPSNLASGVPARFSGSGSGTSYSLTISRVEAEDAATYYCQQWSFNPPTFGAGTKLELKDGGGSGGGGSGGGGSSQAYLQQSGAESVRPGASVKMSCKASGYTFTSYNMHWVKQTPRQGLEWIGAIYPGNGDTSYNQKFKGKATLTVDKSSSTAYMQLSSLTSEDSAVYFCARVVYYSNSYWYFDVWGTGTTVTVS
notes: SMIP: scFv-hinge-CH2-CH3; also called 2H7 SMIP; CD20 SMIP (TRU015)
binding result (CD28mIgG [4]): no binding

The remaining lines, values ahead:

binding result (CD28mIgG [2]): no binding (tested: CD28Ig at 10 µg/ml)
B2: SMIP-sized cleaved fragment (2H7-sss-hIgG) of 2H7-sss-hIgG-H6-2e12 (other)
chain: QIVLSQSPAILSASPGEKVTMTCRASSSVSYMHWYQQKPGSSPKPWIYAPSNLASGVPARFSGSGSGTSYSLTISRVEAEDAATYYCQQWSFNPPTFGAGTKLELKDGGGSGGGGSGGGGSSQAYLQQSGAESVRPGASVKMSCKASGYTFTSYNMHWVKQTPRQGLEWIGAIYPGNGDTSYNQKFKGKATLTVDKSSSTAYMQLSSLTSEDSAVYFCARVVYYSNSYWYFDVWGTGTTVTVSEPKSSDKTHTSPPSPAPELLGGSSVFLFPPKPKDTLMISRTPEVTCVVVDVSHEDPEVKFNWYVDGVEVHNAKTKPREEQYNSTYRVVSVLTVLHQDWLNGKEYKCKVSNKALPASIEKTISKAKGQPREPQVYTLPPSRDELTKNQVSLTCLVKGFYPSDIAVEWESNGQPENNYKTTPPVLDSDGSFFLYSKLTVDKSRWQQGNVFSCSVMHEALHNHYTQKSLSLSPGK
notes: Cleavage product seen on gels and blots, about 52 kDa; also called cleaved forms of the multivalent constructs; peptide fragment containing (2H7-sss-hIgG), and missing the CD28 scFv BD2 portion; not shown: C-terminal end: cleaved at or near the H6 linker, site not determined

binding result (CD20 [3]): no binding (tested: 5 ug/ml)
B3: 2e12 VHVL SMIP (Fc fusion)
chain: QVQLKESGPGLVAPSQSLSITCTVSGFSLTGYGVNWVRQPPGKGLEWLGMIWGDGSTDYNSALKSRLSITKDNSKSQVFLKMNSLQTDDTARYYCARDGYSNFHYYVMDYWGQGTSVTVSSGGGGSGGGGSGGGGSGGGGSDIVLTQSPASLAVSLGQRATISCRASESVEYYVTSLMQWYQQKPGQPPKLLISAASNVESGVPARFSGSGSGTDFSLNIHPVEEDDIAMYFCQQSRKVPWTFGGGTKLEIKR
notes: SMIP: scFv-hinge-CH2-CH3; also called 2E12IgG-VHVL SMIP; 2e12 HL SMIP; not shown: hinge-CH2-CH3 of human IgG
